Results as given in patent US20240368285A1 (HEFEI TG IMMUNOPHARMA, published 2024).
Read-outs that look alike come from different tables or passages of the source.

Key:
MICA004α3-Fc [1] = target: T1, MICA004α3-Fc (human); assay: ELISA on coated MICA*004 α3-Fc (1 µg/ml), HRP anti-human Fab secondary, OD450
T1 construct: also called MICA*004-Fc; domain α3 of MICA-004 Fc fusion protein
Protocol: (§1) After the antibodies were added, signal intensity was used for judging the binding characteristics of the antibodies and MICA and MICB.
(§2) The fusion proteins (produced in the Applicant's laboratory; an amino acid sequence of MICA002α3-Fc is as set forth in SEQ ID NO: 22; an amino acid sequence of MICA005α3-Fc is as set forth in SEQ ID NO: 24; an amino acid sequence of MICA008α3-Fc is as set forth in SEQ ID NO: 25; an amino acid sequence of MICA004α3-Fc is as set forth in SEQ ID NO: 23; an amino acid sequence of MICB001α3-Fc is as set forth in SEQ ID NO: 26; and an amino acid sequence of MICB005α3-Fc is as set forth in SEQ ID NO: 27) were diluted to a concentration of 1 μg/ml with PBS and then added into a 96-well plate in a volume of 100 μl/well. The plate was placed at 4° C. overnight. The PBS in the 96-well plate was removed by sucking. After the plate was washed with PBST (that is, PBS having a pH value of 7.2 included 0.1 volume % of Tween 20) for 6 times, PBS containing 10% of BSA was added in a volume of 200 μl/well. The plate was incubated at 37° C. for 2 hours for blocking. The blocking solution was removed. […]

MICB005α3-Fc = target: T2, MICB005α3-Fc; assay: ELISA on coated MICB*005 α3-Fc (1 µg/ml), HRP anti-human Fab secondary, OD450
T2 construct: also called MICB*005-Fc; domain α3 of MICB-005 Fc fusion protein
T2 sequence (chain, as listed by the source limits assumed): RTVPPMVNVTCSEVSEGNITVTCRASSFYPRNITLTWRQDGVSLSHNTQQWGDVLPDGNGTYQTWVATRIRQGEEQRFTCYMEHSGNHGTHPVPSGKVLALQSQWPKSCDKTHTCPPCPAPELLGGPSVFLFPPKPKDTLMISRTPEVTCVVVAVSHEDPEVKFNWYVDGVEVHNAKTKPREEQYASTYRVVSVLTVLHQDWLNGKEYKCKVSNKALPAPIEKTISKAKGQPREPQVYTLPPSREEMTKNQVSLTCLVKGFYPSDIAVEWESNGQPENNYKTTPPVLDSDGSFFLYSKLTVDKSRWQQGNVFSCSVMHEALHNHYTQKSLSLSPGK

MICB001α3-Fc = target: T3, MICB001α3-Fc; assay: ELISA on coated MICB*001 α3-Fc (1 µg/ml), HRP anti-human Fab secondary, OD450
T3 construct: also called MICB*001-Fc; domain α3 of MICB-001 Fc fusion protein
T3 sequence (chain, as listed by the source limits assumed): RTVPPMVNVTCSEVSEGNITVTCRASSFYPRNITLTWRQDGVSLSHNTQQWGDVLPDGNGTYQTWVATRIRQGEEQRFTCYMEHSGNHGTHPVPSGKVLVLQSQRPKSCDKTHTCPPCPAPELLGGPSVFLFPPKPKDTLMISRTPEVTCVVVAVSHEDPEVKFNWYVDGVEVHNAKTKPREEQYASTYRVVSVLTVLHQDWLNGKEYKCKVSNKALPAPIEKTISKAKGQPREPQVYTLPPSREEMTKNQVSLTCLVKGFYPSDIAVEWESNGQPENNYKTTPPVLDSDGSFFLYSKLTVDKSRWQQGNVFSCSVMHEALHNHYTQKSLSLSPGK

MICA008α3-Fc = target: T4, MICA008α3-Fc (human); assay: ELISA on coated MICA*008 α3-Fc (1 µg/ml), HRP anti-human Fab secondary, OD450
T4 construct: also called MICA*008-Fc; domain α3 of MICA-008 Fc fusion protein
T4 sequence (chain, as listed by the source limits assumed): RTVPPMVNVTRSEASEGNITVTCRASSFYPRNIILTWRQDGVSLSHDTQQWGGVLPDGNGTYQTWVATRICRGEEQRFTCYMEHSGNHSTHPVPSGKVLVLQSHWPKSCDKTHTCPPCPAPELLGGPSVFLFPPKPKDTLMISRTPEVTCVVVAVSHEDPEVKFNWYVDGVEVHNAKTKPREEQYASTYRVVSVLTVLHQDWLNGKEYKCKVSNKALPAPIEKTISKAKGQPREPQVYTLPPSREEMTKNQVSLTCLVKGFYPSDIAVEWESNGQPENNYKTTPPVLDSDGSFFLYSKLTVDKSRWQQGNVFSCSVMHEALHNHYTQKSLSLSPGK

[2] = target: T5, MICA on human tumor cells (A-375, A549, HCT-15, MDA-MB-231) (human, UniProt Q29983 24-383); assay: flow cytometry on MDA-MB-231 cells, Alexa-647 goat anti-human secondary, % binding ratio
T5 construct: whole, on cells
T5 sequence (looked up): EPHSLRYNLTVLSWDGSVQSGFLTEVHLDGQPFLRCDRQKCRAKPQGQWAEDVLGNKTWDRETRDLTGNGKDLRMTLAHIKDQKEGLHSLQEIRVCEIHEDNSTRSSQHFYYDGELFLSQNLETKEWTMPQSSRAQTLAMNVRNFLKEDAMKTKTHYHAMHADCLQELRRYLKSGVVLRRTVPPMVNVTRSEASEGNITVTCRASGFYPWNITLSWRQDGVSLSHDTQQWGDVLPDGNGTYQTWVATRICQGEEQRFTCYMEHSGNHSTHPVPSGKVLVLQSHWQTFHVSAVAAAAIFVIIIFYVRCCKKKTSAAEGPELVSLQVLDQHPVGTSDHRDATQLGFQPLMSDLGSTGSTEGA
Protocol: (2) Tumor cells were diluted to a density of 2×10⁶/mL with PBS and added into a 1.5 ml EP tube in a volume of 100 l/tube. 10 l/tube of goat serum was added into the EP tube; and blocking was conducted at 4° C. for 30 min. […] The tube was incubated at 4° C. for 30 min. 1 mL of PBS was added into the EP tube, and centrifugation was conducted 4° C. at a rate of 3,500 rpm for 5 min. The supernatant was removed. Then, the EP tube was washed once with the PBS, and the supernatant was removed after centrifugation. The cells were resuspended with PBS in a volume of 100 l/tube. An Alexa-647 labeled goat anti-human secondary antibody (purchased from Jackson lab) was added into the tube in a volume of 1 l/tube, and the tube was incubated in the dark at 4° C. for 30 min. The tube was washed twice with PBS, and the supernatant was removed after centrifugation. The cells were resuspended with the PBS in a volume of 200 l/tube, and detection was conducted by a flow cytometer. The results are as shown in FIG. 17A and FIG. 17B, FIG. 18A and FIG. 18B, FIG. 19A and FIG. 19B, and FIG. 20A and FIG. 20B.

MICA004α3-Fc [3] = target: T1, MICA004α3-Fc; assay: ELISA on coated MICA*004 α3-Fc (1 µg/ml), HRP anti-human Fab secondary, OD450; remark: listed apart in the source
MICA005α3-Fc = target: T6, MICA005α3-Fc (human); assay: ELISA on coated MICA*005 α3-Fc (1 µg/ml), HRP anti-human Fab secondary, OD450
T6 construct: also called MICA*005-Fc; domain α3 of MICA-005 Fc fusion protein
T6 sequence (chain, as listed by the source limits assumed): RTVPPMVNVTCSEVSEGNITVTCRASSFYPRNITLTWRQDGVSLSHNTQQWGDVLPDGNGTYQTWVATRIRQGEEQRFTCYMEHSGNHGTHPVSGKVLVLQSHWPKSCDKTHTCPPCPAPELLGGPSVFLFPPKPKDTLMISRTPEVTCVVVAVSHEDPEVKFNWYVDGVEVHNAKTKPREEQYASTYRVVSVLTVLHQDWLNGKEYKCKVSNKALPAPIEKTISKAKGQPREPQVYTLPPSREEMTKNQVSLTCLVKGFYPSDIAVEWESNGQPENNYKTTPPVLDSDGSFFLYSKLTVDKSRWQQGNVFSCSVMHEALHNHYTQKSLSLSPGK
Protocol: as §1, §2

T1 sequence (chain, as listed by the source limits assumed): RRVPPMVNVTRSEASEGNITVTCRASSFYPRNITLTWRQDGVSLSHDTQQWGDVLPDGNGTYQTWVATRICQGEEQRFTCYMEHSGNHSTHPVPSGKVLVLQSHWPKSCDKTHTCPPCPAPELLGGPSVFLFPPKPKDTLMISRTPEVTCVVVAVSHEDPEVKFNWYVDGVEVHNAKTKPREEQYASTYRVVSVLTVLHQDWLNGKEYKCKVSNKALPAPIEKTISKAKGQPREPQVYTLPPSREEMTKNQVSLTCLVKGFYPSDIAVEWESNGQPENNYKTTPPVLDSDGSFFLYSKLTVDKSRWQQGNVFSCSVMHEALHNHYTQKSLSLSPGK

EC50 (read off the curve) (MICA004α3-Fc [1]): ~0.07 µg/mL
EC50 (read off the curve) (MICB005α3-Fc): ~0.04 µg/mL
EC50 (read off the curve) (MICB001α3-Fc): ~0.03 µg/mL
EC50 (read off the curve) (MICA008α3-Fc): ~0.06 µg/mL
EC50 (read off the curve) [2]: ~0.3 µg/mL
EC50 (read off the curve) (MICA004α3-Fc [3]): ~0.04 µg/mL
EC50 (read off the curve) (MICA005α3-Fc): ~0.07 µg/mL
B1: affinity maturation antibody h5A1002 (antibody, V domains shown)
VH: QVQLQESGPGLVKPSETLSLTCTVSGFSLTTYGGHWIRQPPGKGLEWIGMIWTDGWTDYNAAFISRVTISVDTSKNQFSLKLSSVTAADTAVYYCARKGHGYYYAMDYWGQGTLVTVSS
VL: EIVLTQSPGTLSLSPGERATLSCTASSSVSSSYLHWYQQKPGQAPRLLIYSTSNLISGIPDRFSGSGSGTDFTLTISRLEPEDFAVYYCHQYHRSPFTFGQGTKLEIKR
notes: Human IgG1, kappa; also called h5A1002-hIgG1
